In patent US20240117054A1 (DRAGONFLY THERAPEUTICS, published 2024):

T1: hFLT3-His fusion protein (human, UniProt P36888 27-541, limits assumed)
T1 construct: Soluble recombinant antigen used for immunisation, ELISA, SPR and BLI binning; also called recombinant hFLT3 protein; not shown: His tag
T1 sequence (looked up): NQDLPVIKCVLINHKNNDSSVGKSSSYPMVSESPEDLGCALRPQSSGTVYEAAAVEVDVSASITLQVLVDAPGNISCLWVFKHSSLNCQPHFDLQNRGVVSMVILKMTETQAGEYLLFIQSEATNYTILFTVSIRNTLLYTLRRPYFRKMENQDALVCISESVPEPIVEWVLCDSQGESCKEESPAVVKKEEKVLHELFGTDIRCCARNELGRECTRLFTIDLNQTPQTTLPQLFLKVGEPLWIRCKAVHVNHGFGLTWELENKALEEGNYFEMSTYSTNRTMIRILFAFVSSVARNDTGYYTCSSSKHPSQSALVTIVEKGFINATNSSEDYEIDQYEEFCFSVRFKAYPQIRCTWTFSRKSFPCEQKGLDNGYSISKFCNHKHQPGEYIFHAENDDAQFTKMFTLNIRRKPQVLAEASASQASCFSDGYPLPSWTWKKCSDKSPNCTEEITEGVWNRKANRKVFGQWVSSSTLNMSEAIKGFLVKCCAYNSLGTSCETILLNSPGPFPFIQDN

T2: human FLT3 (hFLT3) expressed on cells (human, UniProt P36888 27-993)
T2 construct: whole, on cells; One molecule for all cell lines that carry human FLT3; also called RMA-hFLT3; FLT3 on REH cells
T2 sequence (looked up): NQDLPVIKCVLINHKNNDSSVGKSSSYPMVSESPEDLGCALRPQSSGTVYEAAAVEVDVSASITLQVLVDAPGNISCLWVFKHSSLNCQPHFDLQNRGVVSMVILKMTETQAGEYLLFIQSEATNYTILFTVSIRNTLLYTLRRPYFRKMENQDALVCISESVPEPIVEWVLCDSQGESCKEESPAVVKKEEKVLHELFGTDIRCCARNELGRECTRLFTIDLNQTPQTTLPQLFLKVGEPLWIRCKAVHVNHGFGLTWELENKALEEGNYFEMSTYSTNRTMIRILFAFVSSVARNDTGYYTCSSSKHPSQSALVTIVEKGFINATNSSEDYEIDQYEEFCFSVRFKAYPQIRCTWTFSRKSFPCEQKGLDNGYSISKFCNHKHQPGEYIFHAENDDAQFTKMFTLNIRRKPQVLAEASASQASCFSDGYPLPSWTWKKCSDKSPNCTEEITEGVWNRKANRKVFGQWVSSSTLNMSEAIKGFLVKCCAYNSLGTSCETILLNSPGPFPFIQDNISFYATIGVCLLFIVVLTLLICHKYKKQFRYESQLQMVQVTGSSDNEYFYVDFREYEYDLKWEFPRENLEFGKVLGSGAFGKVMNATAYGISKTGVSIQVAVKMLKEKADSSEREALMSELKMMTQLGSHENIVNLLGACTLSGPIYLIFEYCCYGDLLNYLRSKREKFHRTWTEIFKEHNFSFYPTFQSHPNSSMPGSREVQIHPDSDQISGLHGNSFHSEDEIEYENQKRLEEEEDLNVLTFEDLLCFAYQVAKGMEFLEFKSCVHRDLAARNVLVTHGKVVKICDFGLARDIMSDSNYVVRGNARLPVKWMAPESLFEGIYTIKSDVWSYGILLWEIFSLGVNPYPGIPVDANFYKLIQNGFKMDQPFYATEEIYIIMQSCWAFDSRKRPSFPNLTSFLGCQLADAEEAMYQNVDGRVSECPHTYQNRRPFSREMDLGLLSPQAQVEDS

T3: cynomolgus monkey FLT3 (cFLT3) expressed on RMA cells (cynomolgus monkey, UniProt A0A2K5VQ48 27-993)
T3 construct: whole, on cells; also called RMA-cFLT3; cynomolgus FLT3
T3 sequence: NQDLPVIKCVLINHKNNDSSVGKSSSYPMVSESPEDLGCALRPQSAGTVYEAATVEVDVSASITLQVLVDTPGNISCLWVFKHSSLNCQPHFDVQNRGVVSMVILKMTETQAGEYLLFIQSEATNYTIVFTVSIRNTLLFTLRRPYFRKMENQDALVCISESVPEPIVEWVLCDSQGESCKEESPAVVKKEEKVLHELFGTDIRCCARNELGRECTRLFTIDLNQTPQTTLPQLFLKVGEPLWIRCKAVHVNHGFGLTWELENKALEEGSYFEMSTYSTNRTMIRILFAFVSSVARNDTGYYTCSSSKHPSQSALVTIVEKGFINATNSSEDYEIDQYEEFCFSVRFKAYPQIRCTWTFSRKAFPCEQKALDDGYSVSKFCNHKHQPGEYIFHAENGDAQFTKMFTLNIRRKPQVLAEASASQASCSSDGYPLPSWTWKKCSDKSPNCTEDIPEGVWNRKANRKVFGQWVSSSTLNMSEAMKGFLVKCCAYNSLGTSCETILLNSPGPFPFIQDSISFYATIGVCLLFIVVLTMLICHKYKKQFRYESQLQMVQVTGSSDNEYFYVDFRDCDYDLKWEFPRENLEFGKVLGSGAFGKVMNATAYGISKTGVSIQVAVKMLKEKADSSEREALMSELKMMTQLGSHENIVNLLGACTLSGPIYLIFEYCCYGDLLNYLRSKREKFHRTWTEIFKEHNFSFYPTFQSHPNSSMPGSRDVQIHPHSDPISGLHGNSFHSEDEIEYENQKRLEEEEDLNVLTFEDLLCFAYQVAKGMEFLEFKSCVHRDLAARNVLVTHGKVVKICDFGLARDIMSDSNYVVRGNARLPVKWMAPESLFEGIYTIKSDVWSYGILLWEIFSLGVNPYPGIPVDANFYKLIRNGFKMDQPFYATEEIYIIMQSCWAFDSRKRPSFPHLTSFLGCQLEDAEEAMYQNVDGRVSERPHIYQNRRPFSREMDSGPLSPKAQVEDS

T4: FLT3-ITD expressed on MV4-11 cells (human, UniProt P36888 27-543)
T4 construct: whole, on cells; the ITD itself is not described; also called hFLT3-ITD; FLT3 with the ITD mutation
T4 sequence (looked up): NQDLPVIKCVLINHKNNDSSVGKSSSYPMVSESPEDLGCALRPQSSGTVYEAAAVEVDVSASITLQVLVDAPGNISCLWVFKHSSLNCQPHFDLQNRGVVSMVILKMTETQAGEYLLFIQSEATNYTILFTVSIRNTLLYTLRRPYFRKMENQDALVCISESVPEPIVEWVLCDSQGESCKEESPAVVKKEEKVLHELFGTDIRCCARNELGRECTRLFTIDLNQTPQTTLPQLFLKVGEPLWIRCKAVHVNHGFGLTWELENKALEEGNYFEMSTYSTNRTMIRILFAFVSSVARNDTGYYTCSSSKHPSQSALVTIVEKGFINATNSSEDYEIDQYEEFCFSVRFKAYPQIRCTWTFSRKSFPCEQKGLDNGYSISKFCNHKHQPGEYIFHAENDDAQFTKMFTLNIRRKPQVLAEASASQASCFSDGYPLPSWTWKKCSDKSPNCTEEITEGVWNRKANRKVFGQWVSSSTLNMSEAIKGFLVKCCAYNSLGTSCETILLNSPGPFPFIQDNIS


Experiments:
hFLT3-His fusion protein = molecular target: T1, hFLT3-His fusion protein; experiment: SPR, purified murine subclone, hFLT3-His, 1:1 binding fit
[1] = molecular target: T2, human FLT3 (hFLT3) expressed on cells; experiment: flow cytometry on RMA-hFLT3 cells, anti-human IgG secondary antibody, fold over background (FOB)
Excerpt: (§1) Isogenic cell lines ectopically expressing human and cynomolgus monkey FLT3 were used to assess cross-reactivity between human and cynomolgus monkey FLT3. […] cancer cell line RMA expressing hFLT3 or cFLT3 was used to assess tumor antigen binding of FLT3-targeting TriNKET and parental mAb. The human AML cell lines MOLM-13 and MV4-11 and the human ALL cell line REH were used to assess binding ability of the TriNKET or parental mAb. In particular, MOLM-13 cells and MV4-11 cells, which expressed FLT3-T227M and FLT3-ITD, respectively, were used to assess the ability of the FLT3-targeting TriNKET and parental mAb to bind mutant FLT3.
(§2) The cells were then incubated with a fluorophore conjugated anti-human IgG secondary antibody and were analyzed by flow cytometry. The mean fluorescence intensity (MFI) values were normalized to secondary antibody only controls to obtain fold over background (FOB) values.

[2] = molecular target: T3, cynomolgus monkey FLT3 (cFLT3) …; experiment: flow cytometry on RMA-cFLT3 cells, anti-human IgG secondary antibody, fold over background (FOB)
Excerpt: as §1, §2

[3] = molecular target: T2, human FLT3 (hFLT3) expressed on cells; experiment: flow cytometry on REH cells, anti-human IgG secondary antibody, fold over background (FOB)
Excerpt: as §1, §2

[4] = molecular target: T4, FLT3-ITD expressed on MV4-11 cells; experiment: flow cytometry on MV4-11 cells (FLT3-ITD), anti-human IgG secondary antibody, gMFI
Excerpt: as §1, §2

Binder | binding result (hFLT3-His fusion protein) | EC50 (read off the curve) [1] [nM] | EC50 (read off the curve) [2] [nM] | EC50 (read off the curve) [3] [nM] | EC50 (read off the curve) [4] [nM]
14H8.E7 (antibody, V domains shown) VH: EVQLQESGAELVKPGASVKLSCKASGYTFTNYWINWLKQRPGQGLEWIGNIYPGSTIINYNEKFKNKATLTVDTSSSTAYMQLSSLTSDDSAVYYCARRVVYLYFDSWGQGTTLTVSS VL: QIVLTQSPAIMSASPGEKVTMTCSASSSVSYMHWYQQKSGTSPKRWIFDTSKLASGVPVRFSGSGSGTSYSLTITNMETEDAATYYCQQWSSKSPTFGGGTKLEIK | binds |  |  |  | 
F3′-GB102 (bispecific antibody, human IgG1, kappa, also called FLT3-targeting TriNKET) DIVMTQSPDSLAVSLGERATINCRASESVDTYGSSFVHWYQQKPGQPPKLLIYLASNLESGVPDRFSGSGSGTDFTLTISSLQAEDVAVYYCQQNNEEPWTFGCGTKVEIKGGGGSGGGGSGGGGSGGGGSQVQLVQSGAEVKKPGASVKVSCKASGYTFTRYVMHWVRQAPGQCLEWMGFINPYNDDTKYNEKFKGRVTITRDTSASTAYMELSSLRSEDTAVYYCARWRQLGSLDSWGQGTTVTVSSGSDKTHTCPPCPAPELLGGPSVFLFPPKPKDTLMISRTPEVTCVVVDVSHEDPEVKFNWYVDGVEVHNAKTKPREEQYNSTYRVVSVLTVLHQDWLNGKEYKCKVSNKALPAPIEKTISKAKGQPREPRVYTLPPCRDELTKNQVSLTCLVKGFYPSDIAVEWESNGQPENNYKTTPPVLVSDGSFTLYSKLTVDKSRWQQGNVFSCSVMHEALHNHYTQKSLSLSPG heavy: EVQLVESGGGLVKPGGSLRLSCAASGFTFSSYSMNWVRQAPGKGLEWVSSISSSSSYIYYADSVKGRFTISRDNAKNSLYLQMNSLRAEDTAVYYCARGAPIGAAAGWFDPWGQGTLVTVSSASTKGPSVFPLAPSSKSTSGGTAALGCLVKDYFPEPVTVSWNSGALTSGVHTFPAVLQSSGLYSLSSVVTVPSSSLGTQTYICNVNHKPSNTKVDKKVEPKSCDKTHTCPPCPAPELLGGPSVFLFPPKPKDTLMISRTPEVTCVVVDVSHEDPEVKFNWYVDGVEVHNAKTKPREEQYNSTYRVVSVLTVLHQDWLNGKEYKCKVSNKALPAPIEKTISKAKGQPREPQVCTLPPSRDELTENQVSLTCLVKGFYPSDIAVEWESNGQPENNYKTTPPVLDSDGSFFLYSWLTVDKSRWQQGNVFSCSVMHEALHNHYTQKSLSLSPG light: DIQMTQSPSSVSASVGDRVTITCRASQGISSWLAWYQQKPGKAPKLLIYAASSLQSGVPSRFSGSGSGTDFTLTISSLQPEDFATYYCQQGVSFPRTFGGGTKVEIKRTVAAPSVFIFPPSDEQLKSGTASVVCLLNNFYPREAKVQWKVDNALQSGNSQESVTEQDSKDSTYSLSSTLTLSKADYEKHKVYACEVTHQGLSSPVTKSFNRGEC |  | ~1 | ~1 | ~5 | ~1
